Here are results for one variant from paper PMC5052687 (2016).

To fix the notation:
B1: MCvar1 PfEMP1 CIDRα2.8 domain (residues 576-745, C626S) [Plasmodium falciparum] / human CD36 ectodomain (residues 35-439) with C-terminal BAP tag, biotinylated [modified: biotin on the BAP tag (in vitro, BirA ligase); biotin on the BAP tag … (parent complex)
chain 1: EDKIMSYNAFFWMWVHDMLIDSIKWRDEHGRCINKDKGKTCIKGCNKKCISFQKWVEQKKTEWGKIKDHFRKQKDIPKDWTHDDFLQTLLMKDLLLEIIQDTYGDANEIKRIEALLEQAGVGGIDFAALAGLYTKGFVAEKDTTIDKLLQHEQKEADKCLKTHTDDTCPP
chain 2: QKTIKKQVVLEEGTIAFKNWVKTGTEVYRQFWIFDVQNPQEVMMNSSNIQVKQRGPYTYRVRFLAKENVTQDAEDNTVSFLQPNGAIFEPSLSVGTEADNFTVLNLAVAAASHIYQNQFVQMILNSLINKSKSSMFQVRTLRELLWGYRDPFLSLVPYPVTTTVGLFYPYNNTADGVYKVFNGKDNISKVAIIDTYKGKRNLSYWESHCDMINGTDAASFPPFVEKSQVLQFFSSDICRSIYAVFESDVNLKGIPVYRFVLPSKAFASPVENPDNYCFCTEKIISKNCTSYGVLDISKCKEGRPVYISLPHFLYASPDVSEPIDGLNPNEEEHRTYLDIEPITGFTLQFAKRLQVNLLVKPSEKIQVLKNLKRNYIVPILWLNETGTIGDEKANMFRSQVTGKIN

The variants in the assay derive from B1. The assay can be described thus: SPR; plateau of the top sensorgram (highest analyte concentration of the series); concentrations not given; parent: 62; read off a plot.
Turning to chain 1 D75A, the response was ~20 RU.
